Experimental data published in the Human Domainome abundance scans (Beltran et al. 2025).
± gives the uncertainty stated by the source.

B1: POU domain, class 2, transcription factor 1, residues 285 to 354; numbered along this chain, P14859 (parent)
chain: LEELEQFAKTFKQRRIKLGFTQGDVGLAMGKLYGNDFSQTTISRFEALNLSFKNMCKLKPLLEKWLNDAE

Variants of: B1
Assay: abundance fitness (aPCA) (normalised: wild type 0, dead -1); higher = more abundant; growth selection in yeast, the domain comes from the species named
Conditions: Homo sapiens

Row | Variant | abundance fitness
1 | LEELEQFAKTFKQRRIKLGFTQGDVGLAMGKLYGNDFSQTTISRFEALNLSFKNMCKLKPLTEKWLNDAE [L62T] | -0.406 ± 0.041
2 | LEELEQFAKTFKQRRIKLGFTQGDVGLAMGKLYGNDFSQTTISRFEALNLSFKNMCKLKPLMEKWLNDAE [L62M] | -0.006 ± 0.024
3 | LEELEQFAKTFKQRRIKLGFTQGDVGLAMGKLYGNDFSQTTISRFEALNLSFKNMCKLKPLAEKWLNDAE [L62A] | -0.149 ± 0.034
4 | LEELEQFAKTFKQRRIKLGFTQGDVGLAMGKLYGNDFSQTTISRFEALNLSFKNMCKLKPLPEKWLNDAE [L62P] | -0.699 ± 0.064
5 | LEELEQFAKTFKQRRIKLGFTQGDVGLAMGKLYGNDFSQTTISRFEALNLSFKNMCKLKPLIEKWLNDAE [L62I] | -0.091 ± 0.041
6 | LEELEQFAKTFKQRRIKLGFTQGDVGLAMGKLYGNDFSQTTISRFEALNLSFKNMCKLKPLCEKWLNDAE [L62C] | -0.18 ± 0.14
7 | LEELEQFAKTFKQRRIKLGFTQGDVGLAMGKLYGNDFSQTTISRFEALNLSFKNMCKLKPLGEKWLNDAE [L62G] | -0.545 ± 0.067
8 | LEELEQFAKTFKQRRIKLGFTQGDVGLAMGKLYGNDFSQTTISRFEALNLSFKNMCKLKPLWEKWLNDAE [L62W] | -1.08 ± 0.17
9 | LEELEQFAKTFKQRRIKLGFTQGDVGLAMGKLYGNDFSQTTISRFEALNLSFKNMCKLKPLYEKWLNDAE [L62Y] | -0.069 ± 0.041
10 | LEELEQFAKTFKQRRIKLGFTQGDVGLAMGKLYGNDFSQTTISRFEALNLSFKNMCKLKPLVEKWLNDAE [L62V] | -0.102 ± 0.026
11 | LEELEQFAKTFKQRRIKLGFTQGDVGLAMGKLYGNDFSQTTISRFEALNLSFKNMCKLKPLSEKWLNDAE [L62S] | -0.567 ± 0.031
12 | LEELEQFAKTFKQRRIKLGFTQGDVGLAMGKLYGNDFSQTTISRFEALNLSFKNMCKLKPLEEKWLNDAE [L62E] | -0.914 ± 0.083
13 | LEELEQFAKTFKQRRIKLGFTQGDVGLAMGKLYGNDFSQTTISRFEALNLSFKNMCKLKPLKEKWLNDAE [L62K] | -0.937 ± 0.06
14 | LEELEQFAKTFKQRRIKLGFTQGDVGLAMGKLYGNDFSQTTISRFEALNLSFKNMCKLKPLDEKWLNDAE [L62D] | -0.354 ± 0.15
15 | LEELEQFAKTFKQRRIKLGFTQGDVGLAMGKLYGNDFSQTTISRFEALNLSFKNMCKLKPLQEKWLNDAE [L62Q] | -0.913 ± 0.069
16 | LEELEQFAKTFKQRRIKLGFTQGDVGLAMGKLYGNDFSQTTISRFEALNLSFKNMCKLKPLFEKWLNDAE [L62F] | -0.017 ± 0.032
17 | LEELEQFAKTFKQRRIKLGFTQGDVGLAMGKLYGNDFSQTTISRFEALNLSFKNMCKLKKLLEKWLNDAE [P60K] | -0.072 ± 0.047
18 | LEELEQFAKTFKQRRIKLGFTQGDVGLAMGKLYGNDFSQTTISRFEALNLSFKNMCKLKVLLEKWLNDAE [P60V] | -0.141 ± 0.064
19 | LEELEQFAKTFKQRRIKLGFTQGDVGLAMGKLYGNDFSQTTISRFEALNLSFKNMCKLKRLLEKWLNDAE [P60R] | -0.107 ± 0.026

Row | Variant | abundance fitness
20 | LEELEQFAKTFKQRRIKLGFTQGDVGLAMGKLYGNDFSQTTISRFEALNLSFKNMCKLKFLLEKWLNDAE [P60F] | -0.114 ± 0.037
21 | LEELEQFAKTFKQRRIKLGFTQGDVGLAMGKLYGNDFSQTTISRFEALNLSFKNMCKLKNLLEKWLNDAE [P60N] | -0.094 ± 0.041
22 | LEELEQFAKTFKQRRIKLGFTQGDVGLAMGKLYGNDFSQTTISRFEALNLSFKNMCKLKLLLEKWLNDAE [P60L] | -0.074 ± 0.022
23 | LEELEQFAKTFKQRRIKLGFTQGDVGLAMGKLYGNDFSQTTISRFEALNLSFKNMCKLKDLLEKWLNDAE [P60D] | -0.042 ± 0.17
24 | LEELEQFAKTFKQRRIKLGFTQGDVGLAMGKLYGNDFSQTTISRFEALNLSFKNMCKLKILLEKWLNDAE [P60I] | -0.059 ± 0.042
25 | LEELEQFAKTFKQRRIKLGFTQGDVGLAMGKLYGNDFSQTTISRFEALNLSFKNMCKLKQLLEKWLNDAE [P60Q] | -0.094 ± 0.033
26 | LEELEQFAKTFKQRRIKLGFTQGDVGLAMGKLYGNDFSQTTISRFEALNLSFKNMCKLKMLLEKWLNDAE [P60M] | -0.065 ± 0.057
27 | LEELEQFAKTFKQRRIKLGFTQGDVGLAMGKLYGNDFSQTTISRFEALNLSFKNMCKLKYLLEKWLNDAE [P60Y] | -0.217 ± 0.04
28 | LEELEQFAKTFKQRRIKLGFTQGDVGLAMGKLYGNDFSQTTISRFEALNLSFKNMCKLKTLLEKWLNDAE [P60T] | -0.08 ± 0.036
29 | LEELEQFAKTFKQRRIKLGFTQGDVGLAMGKLYGNDFSQTTISRFEALNLSFKNMCKLKHLLEKWLNDAE [P60H] | -0.094 ± 0.034
30 | LEELEQFAKTFKQRRIKLGFTQGDVGLAMGKLYGNDFSQTTISRFEALNLSFKNMCKLKSLLEKWLNDAE [P60S] | -0.029 ± 0.029
31 | LEELEQFAKTFKQRRIKLGFTQGDVGLAMGKLYGNDFSQTTISRFEALNLSFKNMCKLKPNLEKWLNDAE [L61N] | -0.017 ± 0.11
32 | LEELEQFAKTFKQRRIKLGFTQGDVGLAMGKLYGNDFSQTTISRFEALNLSFKNMCKLKPPLEKWLNDAE [L61P] | -0.006 ± 0.063
33 | LEELEQFAKTFKQRRIKLGFTQGDVGLAMGKLYGNDFSQTTISRFEALNLSFKNMCKLKPMLEKWLNDAE [L61M] | -0.053 ± 0.037
34 | LEELEQFAKTFKQRRIKLGFTQGDVGLAMGKLYGNDFSQTTISRFEALNLSFKNMCKLKPHLEKWLNDAE [L61H] | 0.016 ± 0.075
35 | LEELEQFAKTFKQRRIKLGFTQGDVGLAMGKLYGNDFSQTTISRFEALNLSFKNMCKLKPDLEKWLNDAE [L61D] | -0.075 ± 0.061
36 | LEELEQFAKTFKQRRIKLGFTQGDVGLAMGKLYGNDFSQTTISRFEALNLSFKNMCKLKPWLEKWLNDAE [L61W] | -0.038 ± 0.035
37 | LEELEQFAKTFKQRRIKLGFTQGDVGLAMGKLYGNDFSQTTISRFEALNLSFKNMCKLKPFLEKWLNDAE [L61F] | -0.005 ± 0.047
38 | LEELEQFAKTFKQRRIKLGFTQGDVGLAMGKLYGNDFSQTTISRFEALNLSFKNMCKLKPTLEKWLNDAE [L61T] | -0.026 ± 0.053
